Consider six molecules from patent US20170081395A1 (LABRYS BIOLOGICS, published 2017).

For the experiment, the target named is T1, antibody G1 Fab fragment.
T1 construct: purified on Ni-NTA (tag not described); also called antibody G1 Fabs
Kind of experiment: Biacore, 10 uM peptide with 50 nM G1 Fab over human α-CGRP on chip.

Ends that are not written are not given here.

T1 sequence (VH, as listed by the source, chain 1 of 2): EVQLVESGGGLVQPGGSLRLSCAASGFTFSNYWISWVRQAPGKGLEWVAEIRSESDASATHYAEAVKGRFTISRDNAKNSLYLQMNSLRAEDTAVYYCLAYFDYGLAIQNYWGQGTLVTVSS
T1 sequence (VL, as listed by the source, chain 2 of 2): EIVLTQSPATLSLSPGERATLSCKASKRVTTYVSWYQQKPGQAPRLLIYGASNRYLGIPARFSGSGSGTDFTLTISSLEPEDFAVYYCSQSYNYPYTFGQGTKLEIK

On to SCNTATCVTHRLAGLLSRSGGVVKDNFVPTNVGSEAF-NH2 (ends and bridges not checked; also: N-terminal biotin when captured on the chip, also called rat α (1-37); α-rat) [rat α-CGRP (1-37)], for which the “% of binding blocked” value came out at 100%.

B1: human α-CGRP 1-36-COOH (peptide)
peptide: ACDTATCVTHRLAGLLSRSGGVVKNNFVPTNVGSKA-OH
modifications: ends and bridges not checked
notes: also called Peptide 1-36 (not amidated at the C-terminus)
Turning to B1, the “% of binding blocked” value was roughly 40%.
In the case of SGGVVKNNFVPTNVGSAAF-NH2 (also: N-terminal biotin when captured on the chip) [human α-CGRP K35A (19-37)], the “% of binding blocked” value stood at 100%.
SGGVVKNNFVATNVGSKAF-NH2 [human α-CGRP P29A (19-37)]: the “% of binding blocked” value came to 100%.
Regarding SGGVVKNNFVPTNVGSEAF-NH2 (also: N-terminal biotin when captured on the chip) [human α-CGRP K35E (19-37)], the “% of binding blocked” value was found to be 100%.
As for SGGVVKNNFVPTNVGSMAF-NH2 (also: N-terminal biotin when captured on the chip) [human α-CGRP K35M (19-37)], the figure is 100%.
